Measurements taken from article PMC2894021, “Transcriptional control by two leucine-responsive regulatory proteins in Halobacterium salinarum R1” (BMC Molecular Biology, 2010).

How the values were obtained:
[1] = tested on: LrpA1 (Halobacterium salinarum R1); experiment: DNA-affinity chromatography (pull-down), SDS-PAGE densitometry; conditions: CFE buffer: 3 M KCl, 1 M NaCl, 5 mM MgCl2, 10 mM HEPES pH 7.1, room temperature, 4 h, 2 nmol LrpA1, 61 pmol biotinylated DNA
[2] = molecular target: T1, LrpA1 (Halobacterium salinarum R1) (UniProt B0R4X4); experiment: as above; conditions: CFE buffer: 3 M KCl, 1 M NaCl, 5 mM MgCl2, 10 mM HEPES pH 7.1; room temperature, 4 h; 2 nmol LrpA1, 61 pmol biotinylated DNA; elution with 1% SDS
T1 sequence: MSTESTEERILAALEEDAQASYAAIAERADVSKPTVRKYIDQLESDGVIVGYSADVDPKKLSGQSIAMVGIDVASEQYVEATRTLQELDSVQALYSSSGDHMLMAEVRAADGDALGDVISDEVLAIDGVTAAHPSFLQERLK

LrpA1 = LrpA1 (Halobacterium salinarum, UniProt B0R4X4); experiment: analytical DNA-affinity chromatography with aspB3 promoter, SDS-PAGE densitometry; type: biochemical; conditions: 5 mM L-aspartate; 3 M KCl, 1 M NaCl, 5 mM MgCl2, 10 mM HEPES, pH 7.1; room temperature, 4 h; effector of DNA binding, indirect read-out
[3] = molecular target: the molecule itself; experiment: SEC; Superdex 200 3.2/3 column on a SMART device, 50 ul per min, CFE buffer (3 M KCl; 1 M NaCl; 10 mM HEPES, pH 7.1); LrpA1-His6 after renaturation; monomer to dimer

**Q.** Which results are given for aspB3-Pincl?
**A.** binding signal (% band density) ([1]; 5 mM L-arginine, text: binding not enhanced by arginine, elution with 1% SDS): 100; binding signal (% band density) ([1]; 5 mM L-aspartate, elution with 1% SDS): 100; binding signal (% of aspB3-Pincl + 5 mM Arg) ([1]; no amino acid (arginine experiment), elution with 1% SDS): 77; binding signal (% of aspB3-Pincl + 5 mM Asp) ([1]; no amino acid (aspartate experiment), elution with 1% SDS): 34

**Q.** “ACGACACCGGGTCGTTTTGATTGTCGGCTACGTGTCGCAGTGTTGGCGGTAGCGCCGCTCCAACGGTGGTTCCGTGGCGTTCCGCTGTCGGTTGACGATTCGGAAGATATTTTTTCACACGAACCAAATATCCTGACGTGAGCACTGAATCGACAGAAGAGCGAATCCTCGCCGCGCTCGAAGAGGACGCGCAAGCGTCGTATGCGGCCATCGCGGAGCGTGCGGACGTCTCCA (double strand) [lrpA1-Pincl]” was tested. Which binding signal (% band density) [2] did it give?
**A.** 100

**Q.** Which binding signal (% band density) [2] does the source give for “ATCGCGCTTGAACGTCTGCATACGTCCGCTACGCACCAGGCGCGCAAAACTTCAGGGGGTTCGGGACCCGCGGGTTGTGCCGTGATAGCACACGCGTCCCGCAGGAACGATTATGAGGGATGGCCGCGATCCTGCTGGCATGCCTTCGGAGCGCGCGGCTGCGGTCACGCCGTTCGCCGCGATGGATGTCCTCGAACGCGCCGCCGAC (double strand) [aspB3-Pincl]” here?
**A.** 100

**Q.** For lrpA1-Pincl, which binding signal (% band density) ([1]; no amino acid, elution with 1% …) is on record?
**A.** 100

**Q.** “ACGACACCGGGTCGTTTTGATTGTCGGCTACGTGTCGCAGTGTTGGCGGTAGCGCCGCTCCAACGGTGGTTCCGTGGCGTTCCGCTGTCGGTTGACGATTCGGAAGATACCCTTTCACACGAACCCCCTATCCTGACGTGAGCACTGAATCGACAGAAGAGCGAATCCTCGCCGCGCTCGAAGAGGACGCGCAAGCGTCGTATGCGGCCATCGCGGAGCGTGCGGACGTCTCCA (double strand) [lrpA1-Pincl (mutated)]” was tested. Which binding signal (% of lrpA1-Pincl) [2] did it give?
**A.** 24

**Q.** flgB1 control DNA was tested. Which binding signal (% of aspB3-Pincl + 5 mM Arg) ([1]; 5 mM L-arginine, non-specific background, elution with 1% SDS) did it give?
**A.** 30

**Q.** And the binding signal (% of aspB3-Pincl + 5 mM Asp) ([1]; 5 mM L-aspartate, non-specific background, elution with 1% SDS)?
**A.** 7

**Q.** What about the binding signal (% of lrpA1-Pincl) ([1]; no amino acid, non-specific background, elution with 1% SDS) of the same molecule?
**A.** 37

**Q.** For `N[C@@H](CC(=O)O)C(=O)O` [L-aspartate], which “relative binding efficiency to aspB3-Pincl DNA” value (LrpA1) is on record?
**A.** resulting in significantly enhanced binding of LrpA1 to the aspB3Pincl sequence

B1: H. salinarum LrpA1 (OE2621R), His6-tagged (natural protein, Halobacterium salinarum R1, UniProt B0R4X4 1-142, looked up)
chain: T1 sequence
notes: Leucine-responsive regulatory protein homologue LrpA1 of Halobacterium salinarum R1, locus OE2621R; theoretical size of the monomer 15.2 kDa; amplified by PCR and cloned NdeI/XhoI into pET26b; the cloning primers are in additional file 10; also called LrpA1-His6; transcription regulator LrpA1; source: E. coli BL21(DE3), pET26b; purified on Ni-NTA in 8 M urea, renatured by dialysis against high …
**Q.** With B1 as the molecule, how does the “stoichiometry N” value [3] read?
**A.** 2
